The results in this text go back to patent US20040063912A1.

The target in test [1] is purified, soluble huFcRn (human) (UniProt P55899). Description: Biacore (SPR), purified soluble huFcRn. Background: Surface plasmon resonance follows binding to a sensor surface in real time, without labels.
In a further test the target is FcRn. Description: assay not stated; compared with EPO-Fc with native Fc.
The target in another test is EPO receptor (EpoR). Description: in vitro binding to EpoR; method not stated.

As a reminder, the Kd is the free concentration of one partner at which half of the binding sites on the other are occupied at equilibrium, for simple one-to-one binding. A higher Kd goes with a looser complex. IgG1 (antibody): the Kd in test [1] worked out at 8 nM. For the substance “mutated EPO-Fc (Fc modified in three critical amino acid residues in the Fc domain: I253A, H310A, and H435A) (Fc fusion)”, the reduction in FcRn binding with FcRn is greater than 90%. In the test with EPO receptor (EpoR), “native huEPO (from UniProt P01588 28-193) (ligand)” yielded a Kd of 0.2 nM.
